Target: T1, Human NPR-B (Homo sapiens, UniProt P20594)
T1 construct: purchased R&D system
T1 sequence (P20594 23-458 limits assumed): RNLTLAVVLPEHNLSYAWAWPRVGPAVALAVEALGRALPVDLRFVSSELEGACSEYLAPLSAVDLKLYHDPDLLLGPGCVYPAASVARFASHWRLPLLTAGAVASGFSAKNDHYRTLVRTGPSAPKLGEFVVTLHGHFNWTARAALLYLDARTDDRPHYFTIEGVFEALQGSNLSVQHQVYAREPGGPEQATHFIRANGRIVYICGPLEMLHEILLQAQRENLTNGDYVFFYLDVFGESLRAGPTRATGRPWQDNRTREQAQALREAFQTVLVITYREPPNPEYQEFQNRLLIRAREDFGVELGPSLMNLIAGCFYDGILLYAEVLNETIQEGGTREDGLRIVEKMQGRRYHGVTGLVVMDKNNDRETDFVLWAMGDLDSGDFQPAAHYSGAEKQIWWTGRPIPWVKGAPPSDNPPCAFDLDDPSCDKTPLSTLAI
Assay: Biacore SPR kinetic affinity binding to immobilized NPR-B
Conditions: Table 32 summary of affinity
Description: The biological function of these purified protein was assayed for their stimulation of production of cGMP, using NPR-B receptor positive cell line, NIH/3T3 and NPR-B negative cell line HEK293 cells. The determination of cGMP was assay by ELISA using commercial CNP as standard curves. […] Surface preparation. NBR-B was immobilized at different levels in three flow cells via standard amine coupling, leaving Fc 1 unmodified to serve as a reference. All surface plasmon resonance (SPR) analysis was performed on a BIAcore 3000 system using series CM5 sensor chips. Data processing and analysis were performed using BIAevaluation software. All sensorgrams were double referenced by subtracting the response on a reference flow cell and a blank sample. Human NPR-B (R&D system) was covalently attached to a CM5 chip via amine coupling. A surface density of 6600 RU was used for measurements with natriuretic peptides Sequential injections of CNP (0.5-8 nM) were performed at a flow rate of […] (300 s for each), followed by a dissociation time of 900 s. […] Kinetic parameters were calculated assuming a simple 1:1 (Langmuir) binding. […] All SPR analysis was performed on a BIAcore 3000 system using series CM5 sensor chips. Data processing and analysis were performed using BIAevaluation software. All sensorgrams were double referenced by subtracting the response on a reference flow cell and a blank sample. Human NPR-B (R&D system) was covalently attached to a CM5 chip via amine coupling. A surface density of 3100 RU was used for measurements with natriuretic peptides Sequential injections of AMI263 (FC4-CNP) (0.125-2 nM) were performed at a flow rate of […] (300 s for each), followed by a dissociation time of 900 s. […] Kinetic parameters were calculated assuming a simple 1:1 (Langmuir) binding. […] All SPR analysis was performed on a BIAcore 3000 system using series CM5 sensor chips. Data processing and analysis were performed using BIAevaluation software. All sensorgrams were double referenced by subtracting the response on a reference flow cell and a blank sample. Human NPR-B (R&D system) was covalently attached to a CM5 chip via amine coupling. […] Kinetic parameters were calculated assuming a simple 1:1 (Langmuir) binding. […] All SPR analysis was performed on a BIAcore 3000 system using series CM5 sensor chips. Data processing and analysis were performed using BIAevaluation software. All sensorgrams were double referenced by subtracting the response on a reference flow cell and a blank sample. Human NPR-B (R&D system) was covalently attached to a CM5 chip via amine coupling. A surface density of 3100 RU was used for measurements with natriuretic peptides Sequential injections of AMI263 (FC4-CNP) (0.5-300 nM) were performed at a flow rate of […] (300 s for each), followed by a dissociation time of 900 s. […] Kinetic parameters were calculated assuming a simple 1:1 (Langmuir) binding. […] All SPR analysis was performed on a BIAcore 3000 system using series CM5 sensor chips. Data processing and analysis were performed using BIAevaluation software. All sensorgrams were double referenced by subtracting the response on a reference flow cell and a blank sample. Human NPR-B (R&D system) was covalently attached to a CM5 chip via amine coupling.

AMI088: purified fusion protein Fc1-(G4S)4-CNP36 (IgG1 Fc), SEQ ID NO: 133
ka: 4.09E+07
kd: 2.96E−05
